A word on the Km: it is the substrate concentration at which the rate is half of its maximum. The term kcat denotes the maximal rate divided by the concentration of active sites. By kcat/Km is commonly meant the second-order rate constant that governs catalysis at low substrate concentration.

Substrate in data set [1]: O=P(O)(O)OC[C@@H](O)[C@@H](O)[C@@H](O)CO
Nature of the data set: purified protein. The conditions noted are these: 50 mM Tris-HCl pH 7.5, 1 mM MgCl2, 25 °C.

Substrate in data set [2]: O=P(O)(O)OC[C@H](O)[C@H](O)[C@H](O)CO
The data set is described as follows: purified protein. The conditions noted are these: 50 mM Tris-HCl pH 7.5, 1 mM MgCl2, 25 °C.

B1: EFI-501083; putative 5-amino-6-(5-phospho-D-ribitylamino) uracil phosphatase (Bacteroides thetaiotaomicron VPI-5482) (protein)
chain: MIKNIVFDFGGVIVDIDRDKAVQAFIKLGLADADTRLDKYHQTGIFQELEEGKLSADEFRKQLGDLCGRELTMEETKQAWLGFFNEVDLRKLDYILGLRKSYHVYLLSNTNPFVMSWACSPEFSSEGKPLNDYCDKLYLSYQLGHTKPAPEIFDFMIKDSHVIPSETLFVDDGSSNIHIGKELGFETFQPENGADWRQELTVILNS
In the case of B1, in data set [1], the Km is 1080 ± 140 µM, the kcat was 1.5 ± 0.1 s⁻¹ and the kcat/Km is 1400 M⁻¹ s⁻¹. In addition, in data set [2], the Km is 1030 ± 180 µM, the kcat stood at 1.8 ± 0.1 s⁻¹ and the kcat/Km was determined as 1700 M⁻¹ s⁻¹.

Source of the values: PMC4303301.
